# Measured values taken from the nanobody polyreactivity screen of Harvey et al. (2022).
# Assay: yeast display, Sf9 membrane polyspecificity reagent, FACS + sequencing; frameworks hold sequencing errors
# How it was run: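 Using colony PCR, genes from sorted yeast display clones were amplified, then sequenced on MiSeq at 2 × 250 and filtered by CDR length. The clones had been stained with 10% biotinylated, detergent-solubilized Sf9 membrane reagent for 1 hour at 4 °C and sorted by FACS into low and high (top ~1%) gates on anti-HA and streptavidin fluorescence. Polyreactivity labels come from the gate of origin.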
row,Sequence,polyreactivity (PSR sort gate)
1,QVQLVESGVGLVQAGGSLRLICAASGITFSGYDMVWYRQAPWKERELVAAISGSGTSTYYADSEKGRFTISRDKAKNTVYLQMNSLKPEDTAVYYCAARDAIFGSDYWGQGTQVTVSS,high polyreactivity
2,QVQLEESGAGLVQAGGRLRLSCAASGITFILYAMGWYRHAPGKERELVAAISSGGRTKYADSEKGRFTISRDNAKNTVYLQMTSLKPEDTAVYYCNVSYLVYRWNFGWSMDYWGQGTQVTVSS,low polyreactivity
3,QVQLVESGGGLVQAGGSLRLSCAASGRSFSYAMGWYRQAPGKERELVAAISYGGGGTYYADSVKGRFTISRDNAKNTVYLQMNSLKPEDTAVYYCNARQYRPWYPPYGYDYWGQGTQVTVSS,low polyreactivity
4,QVQLVESGGGLDQAGGSLRLTCAASGSIFEIYDRGWYRQAPGKEMELVASIRTSGGSTFYADSVKGRFTISRDNAKNTVYLQMNSLKPEDTAVYYCAAGDVPRRIYLVYVGYLLDYWGQGTQVTVSS,low polyreactivity
5,QVQLVESGGGLVQAGGSLRLSCAASGSTVINYAMGWYRHAPGKERELVATLTSDGRTYYADSVKGRCTISRDNAKNTVYLQMISLKPEDTAVYSCAKSYGGVTEYDYWGQGTQVTVSS,low polyreactivity
6,QVQLVESGGGLVQAGGSLRLSCAASGFTFTQYAMGWYRPAPGKECELVAAISRSGGSTYYADSVKGRFTISRDNAKNTVYLQMTSLKPEDTPVYYCAADWRFRYDYWGQGTQVTVSS,high polyreactivity
7,QVHLVESGGGLVQAGGSLRLSCSASGRIFRVYAMGWYRQPPGKERELVAAIDQRGGRTYYADSVKGRFTISRDNAKNTVYLQMNSLKPEDTAVYYCNAEYYVSSLVESEYWGQGSQVTVSS,low polyreactivity
8,QVQLVESGGGLVQAGGSLRLSCAASGITFGWYAMGWYRQAPGKERELVASISSSGSTNYADSVKGRFTISRDNAKNTVYLQMNSLKPEDTAVYYCNKDYLLRHYYIYVIEGDYWGQGTQVTVSS,low polyreactivity
9,QVQLGESGAGIVQAGGSLRLSCAASGSTFQTYAMGWYRQAPGKERELVAAITWRGGSTYYAHSVKGRFTISRDNAKNTVYLQMNSLKPEDTAVYYCAAKWLGAHDHRAAYDSWGQGTQVTVSS,low polyreactivity
10,QVQLVESGGGLVQAGGSLRLSCAASGITFDYYGMGWYIQAPGKERELVASITSGGSTNYADSVKGRFTISRDNPKNTVYLQMNSLKPEDTAVYYCNAEFWEVSPDPRDYDYWGQGTQVTVSS,low polyreactivity
11,QVQLVESGGGLVQAGGSLRLSCAPSGRIFTGYAMGWYRPEPGQEWELVAASTSSGGSTYYADSVKGRVTISRDYAKNTVYLQMNSLKPEDTAVYYCNKVGRPRYNYWGQGTEVTVSS,high polyreactivity
12,QVQLVESGGGLVQAGGSLRLSCAASGSTSTYYAMGWYRQAPGKERELVAAITLGAGRKYADSVKGRFTISRDNAKNTVYLQMNSLKPEDTAVYYCAADSHIDHGKWAYDYWGQGTQVTVSS,low polyreactivity
13,QVQLLESGGGLVQAGGSLRLSCAASGYTFRYYTMGWYRQAPGKERELVAAISGSGGSTYYADSVKGRFTISRDTAKNTVYLQMNSLKPEDTAVYYCNRFYSTSRITQYEFDYWGQGTQVTVSS,high polyreactivity
14,QVQLVESGGGLVQAGGSLRLSCAASGRTFYRNPMGWYRQAPGKEWELVAGITRCGRTYYADSVKGRFRISRDNAKNTVYLQMNCLKPEDTAVYYCNKTGGNGNDYWGQGTQVTVSS,low polyreactivity
15,QVQLVESGGGLVQAGGSLRLSCAASGMGWYRQAPGKERELVARISGGVSTNYADSVKGRFTISRDNAKNTVYLQMNSLKPEDTAVYYCAADPLDTYDYWGQGTQVTVSS,low polyreactivity
16,QVQLVESGGGLVQAGGSLRLSSAASGRIFAKYAMGWYRQAPGKERELVAAISWGGGSTYYADSVKGRFTISRDNAKNTVYLQMNSLKPEDTAVYYCAARIPKQRDVRGSGMNYWGQGTQVTVSS,high polyreactivity
17,QVQLVDSGGGLVQAGGSLRLSCAASGRIFAWYAMGWYRQAPGKERELVAAISSGGSTNYADSVKGRFTISRDNAKNTVYLQMNSLKPEDTAVYYCNRYPVRDTGGYWGQGTQVTVSS,low polyreactivity
18,QVQHVESGGGLVQAGGSLSLSCAASGRTILWNAMGWYRQAPGKERELVAAITSGGRTYYADSVKGRFTISRDNAKNTVYLQMNSLIPEDTAVYYCAASTVYWSTVNSQARFNYWGQGTQVTVSS,high polyreactivity
19,QVQLVESGGGLVQAGGSLRLSCAASGFIFIYDMGWYRQAPGKERELVAAITSSDGSTYYADSVKGRFTISRDNAKNTVYLQMNSLKPEDTAVYYCNAKYPWGNYNSVSYDYWGQGTQVTVSS,high polyreactivity
20,QVQLVESGGGLVHAGGSLRLSCAASGSIIEAYAMGWYRQAPGKEMELVAVISTGGGSTSYADSVKGRFTISRDNAKNTVYLQMNSLKPEDTAVYYCAAEYRWSYFRTYYSWGQGTQVTVSS,low polyreactivity
21,QVQLVESGGGLVQAGGSLRLSCAASGFIFGYYAMGWYRQAPGKERELVAAISYSGGSTYYADSVKGRFTISRDNAKNTVYLQMNSLKPEDTAVYYCAKYGQSNYDWGQGTQVTVSS,high polyreactivity

row,Sequence,polyreactivity (PSR sort gate)
1,QVQLVESGGGLVKAGGSLRLSCAASGRTFRAYAMGWYRQAPGKERELVAAITSGGSTKYADSVKGRFTISRDNAKNTVYLQMNSLKPEETAVYYCNARFDRVYQLKWWYSYDYWGQCTQVTVSS,high polyreactivity
2,QVQLVESGGGLVQAGGSLRLSCAASGRTFETNAMGWYRQAPGKERELVASINWSGGSTYYADSVKGRFTISRDNAKNTVYLQMNSLKPEDTAVFYCAADHSYWDWWSYYYWGQGTQVTVSS,low polyreactivity
3,QVQLVESGGGLVQAGGSLRLSCAASGGTFRNYAMGWYRQAPGKERELVAAITTGTITNYADSVKGRFTISRDNAKNTVYLQMNSLKPEDTAVYYCNAGAFYSDPYDYWGQGTQLTVSS,low polyreactivity
4,QVQLVESGGGLVQAGGSLRLSCAASGYIFQYYPMGWYRQAPGKERELVAAITSGTRTYYADSVKGRFTISRDNAKNTVYLQMNSLKPDDTAGYYCAASPDYSRYWVYAPTRRLGYWGQGTQVTVSS,high polyreactivity
5,QVQLVESGGGLVHAGGSLLLSCAASGFISSRYAMGWYRQAPGKERELVAAISRGGGSTYYADSVKGRFTISRDNAKNSVYLQMNSLKPEYTAVYYCAAAARGSPQYDYWGQGSQVTVSS,high polyreactivity
6,QVQLVESGGGLVQAGGSLRLSCAASGSTFAYYAMGWYRQAPGKERELVAASSVSGGRTYYADSVQGRFTISRDNAKNTVYLQMNSLKPEDTAVYYCAARLWRDYYWGQGTQVTVSS,high polyreactivity
7,QVQLVESGGGLVQAGGSLRLSCAASGRIFGIYAMGWYRQAPGKERELVATITDSDDSTYYADSVKGRFTISRDNAKNTVYLQMNSLKPEDTAVYYCATAFSYGGGAYDYWGQGTQVTVSS,low polyreactivity
8,QVQLVESGGGLVQAGGSLRLSCDASGFTIYRYAMGWYRQAPGKERELVAAISSGGGSTYYADSVKGRFTISRDNAKNTVYLQMYILKPEDNAVYYCNAQGFIYYWLRYDYWGQGTQVTVSS,high polyreactivity
9,QVQLVESGGGLVQAGGSLRLSCAASGSTFTRYGMGWYRQAPGKERELVAAITTSGSSTYYADSVKGRFTISRDNAKNTVYLQMNSLKPEDTAVYYCAADWSSWGFDYWGQGTQVTVSS,low polyreactivity
10,QGQLVESGGGLVQAGGSLRLSCAASGRTFGINAMGWYRQAPGKERELVAVISFGDGGTYYADSVKGRFTISRDNAKNTVYLQMNSLKPEDTAVYYCATDYQSTSVWGGHFVINPYDYWGQGTQVTVSS,low polyreactivity
11,QVQLVESGGGLVQAGGSLRLSCAASGSTFYVYAMGWYRQAPGKERELVASITRGGGTYADSVKGRFTISRDNAKNTVYLQMNSQKPEDTAVYYCNARWQRSTGGRQRYDYWGQGTQVSVSS,high polyreactivity
12,QVQLVESGGGLVQAGGSLRLSCAASGNIFIHYAMGWYRQAPGKERELVAAITWSGGSTYYADSVKGRFTISRDNAKNTVYLQMNSLTPEDTAVSYCNSVSKYGPADGYGDYWGQGTQVTVSS,high polyreactivity
13,QVQLVESGGGLFQAGGSLRLSCAASGFTFHRNAMGWYRQAPGKERELVAAITLNGGSSTYYADSVKGRFTISRDNAKNTVYLQMNSLKAEDTAVYSCALDSYSYTFSKNSDPAEYEYWGQGTQVTVSS,low polyreactivity
14,QVQLVESGGGLVQAGVSLRLSCAASGRIFSPYAMGWYRQAPGKERELVAAIDWDGGGTYYADSVKGRFTISRDNAKNTVYLQMNSLKPEDTAVYYCAAETDLANGTSPSDYCGQGTQVTVSS,low polyreactivity
15,QVQLVESGGRLVQAGGSLRLSCAASGSIFALYAMGWYRQQPGKVRELVAAIRRGTSTKYADSVKGRFTISRDNAKNTVNLHMKSLKPEDTAVYYCNARYYYCSSISRWSDYWVQGTQVTVSS,high polyreactivity
16,QVQLVESVGGLVQAGGSLRLSCAASGGTFSFNAMGWYRQAPGKERELVAAITQTGDRTYYADSVKGRFTISRDNAKNTVYLQMNSLKPEDTAVYYCAADDIYYQGIYRGSEFDYRGQGTQVTVSS,low polyreactivity
17,QVQLVESGGGLVQAGGSLRLSCAASGSIFAFNAMGWYRQAPGKERELVAAITSGGNTYYADSVKGRFTISRDNAKNTVYLQMNSLKPEDTAVYYWATVFSVQGWYFGMNYWGQGTQVTVSS,low polyreactivity
18,QVQLVESGGALVQAGGSLRLSCAASGSTYDSYSMGWYRKAPGKERELVAAITRRGTRTYYADSVKGRFTISRDNAKNTVYLQMNSLKREDTAVYYCAADRGYRLQSYGYWGQGTQVTVSS,high polyreactivity
19,QVQLVESGGGLVHAGGSLRLSCAASGFTFLYNSMGWYRQAPGKERELVASINSGGSTNYADSVKGRFTISRDNAKNTVYLQMNSLKPEDTAVYYCNAKRHVRKGDYWGQGTQVTVSS,low polyreactivity
20,QVQLVESGGGLVQAAGSLRLSCAASVNTFFKNAMGWYRQAPGKERELVAAISKGGGSTYYADSVKGRFTISRDNAKNTVYLQMNSLKPEDTAVYYCAADTFGVYASTYDYWGQGTQVTVSS,high polyreactivity
